Test results published in patent publication US20250084176A1 (F STAR BETA, published 2025).
Where a chain is given by its changes, count along the chain named.

Tests used:
[1] = target: human CD137, full length, on cells (human, UniProt Q07011 24-255); test: cell-based or functional assay
human CD40 = human CD40 (human, UniProt P25942 21-193); test: SPR (Biacore T200), receptor amine-coupled to CM5 chip
Method: (§1) The specificity of the anti-human CD137 Fcabs for human CD137 compared to other related TNFSFR family members was tested. 8 of the Fcabs were tested in mock mAb² (HeID1.3) format and measured by SPR in a Biacore T200 (GE Healthcare) by testing for binding to other human TNFRSF receptors: CD40, OX40 and GITR. Amine coupling (amine coupling kit, GE Healthcare, BR-1000-50) was used to coat human CD40, GITR and OX40 to approximately 1000 RU in Biacore CM5 chips (GE Healthcare, cat no 29149603). […] The chip was regenerated by injection of 10 mM glycine pH 2.5 for 12 s at 30 μl/min. Antibodies specific to the different TNFRSF members were used as positive controls to verify Biacore chip coating. Data was double reference subtracted and analysed using BIAevaluation 3.2 software.

human OX40 = target: T1, human OX40 (human, UniProt P43489 29-216, limits assumed); test: as above
T1 sequence (looked up): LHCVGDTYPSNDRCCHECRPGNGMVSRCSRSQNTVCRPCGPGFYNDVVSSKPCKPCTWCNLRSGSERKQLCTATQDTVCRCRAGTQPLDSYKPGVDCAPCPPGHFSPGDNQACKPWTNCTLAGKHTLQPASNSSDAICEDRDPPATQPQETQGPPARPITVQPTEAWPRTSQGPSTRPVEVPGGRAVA
Method: as §1

human GITR = target: T2, human GITR (human, UniProt Q9Y5U5 26-161, limits assumed); test: as above
T2 sequence (looked up): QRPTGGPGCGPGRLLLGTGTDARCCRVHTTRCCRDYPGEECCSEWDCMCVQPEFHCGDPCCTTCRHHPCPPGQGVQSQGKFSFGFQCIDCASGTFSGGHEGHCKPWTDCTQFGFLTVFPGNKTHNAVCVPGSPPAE
Method: as §1

hCD137-mFc-Avi = target: T3, hCD137-mFc-Avi (human; mouse, UniProt Q07011 24-186, one biotin on the Avi sequence of each monomer (BirA); unbiotinylated in the SPR of Example 5.6); test: SPR (Biacore), mAb2 captured by anti-human Fab, antigen in solution, 1:1 Langmuir
T3 construct: Made in-house in HEK293-6E; also called human CD137-mFc-Avi; dimeric human CD137; not shown: mouse IgG2a Fc domain (mIgG2a Fc)
T3 sequence (Q07011 24-186): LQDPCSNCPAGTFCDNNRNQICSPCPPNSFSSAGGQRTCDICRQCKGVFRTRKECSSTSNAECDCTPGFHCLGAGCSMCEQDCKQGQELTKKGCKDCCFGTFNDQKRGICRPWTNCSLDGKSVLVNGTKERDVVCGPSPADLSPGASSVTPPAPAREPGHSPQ
Method: (§2) An anti-human Fab capture antibody was immobilised on all four flow cells of a CM5 series S chip (GE Healthcare #BR-1005-30) to an average surface density of 6000 RU following the manufacturer's recommendations (GE Healthcare, human Fab capture Kit, #28958325). IEach mAb² was captured to approximately 150 RU by injecting a 3 μg/ml solution of mAb² diluted in HBS-EP+ buffer (GE Healthcare #BR1006-69) for 60 seconds at 30 μl/min. Then different concentrations of human, cyno or mouse CD137 antigen (unbiotinylated human, cyno or mouse CD137-mFc-Avi or human CD137-Avi-His) in HBS-EP+ buffer were flowed over the chip for 3 min at 60 μl/min and then allowed to dissociate for 10 minutes. After each antigen concentration the chip was regenerated by infecting 10 mM glycine pH 2.1 at a flow rate of 30 μl/min for 30 seconds. Buffer HBS-EP+ was injected before the highest concentration of antigen and after the lowest concentration of antigen for reference subtraction, and one of the concentrations at random was repeated twice. The binding kinetics were fit with a 1:1 Langmuir model to generate equilibrium binding constants (KD) for each sample. Data analysis was performed with BiaEvaluation software version 3.2.

hCD137-Avi-His = target: T4, hCD137-Avi-His (human, UniProt Q07011 24-186, single biotin on the Avi sequence (BirA); unbiotinylated in the SPR of Example 5.6); test: as above
T4 construct: also called human CD137-Avi-His; monomeric human CD137
T4 sequence (Q07011 24-186): as above
Method: as §2

cCD137-mFc-Avi = target: T5, cCD137-mFc-Avi (cynomolgus; mouse, one biotin on the Avi sequence of each monomer (BirA); unbiotinylated in the SPR of Example 5.6); test: as above
T5 construct: also called cyno CD137-mFc-Avi; dimeric cynomolgus CD137; not shown: mouse IgG2a Fc domain (mIgG2a Fc)
T5 chain: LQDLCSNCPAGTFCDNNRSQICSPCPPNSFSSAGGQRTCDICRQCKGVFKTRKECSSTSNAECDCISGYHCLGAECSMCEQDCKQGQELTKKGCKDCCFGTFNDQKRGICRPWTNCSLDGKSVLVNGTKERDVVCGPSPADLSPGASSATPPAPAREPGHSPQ
Method: as §2

Chain of human CD40 (P25942 21-193 limits assumed): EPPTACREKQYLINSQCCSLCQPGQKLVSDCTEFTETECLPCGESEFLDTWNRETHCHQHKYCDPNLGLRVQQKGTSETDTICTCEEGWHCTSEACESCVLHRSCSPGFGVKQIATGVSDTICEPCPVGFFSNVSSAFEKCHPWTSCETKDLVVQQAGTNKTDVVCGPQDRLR
Chain of human CD137, full length, on cells (Q07011 24-255): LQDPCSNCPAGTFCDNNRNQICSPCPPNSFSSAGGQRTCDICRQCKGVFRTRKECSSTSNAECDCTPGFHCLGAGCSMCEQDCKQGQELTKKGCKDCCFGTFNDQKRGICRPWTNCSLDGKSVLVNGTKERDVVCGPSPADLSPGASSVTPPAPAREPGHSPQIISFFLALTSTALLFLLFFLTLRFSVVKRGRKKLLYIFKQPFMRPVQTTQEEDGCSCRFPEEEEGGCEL

B1: FS22-053-008/HelD1.3 (bispecific antibody, human IgG1, kappa)
heavy: QVQLQESGPGLVRPSQTLSLTCTVSGSTFSGYGVNWVRQPPGRGLEWIGMIWGDGNTDYNSALKSRVTMLVDTSKNQFSLRLSSVTAADTAVYYCARERDYRLDYWGQGSLVTVSSASTKGPSVFPLAPSSKSTSGGTAALGCLVKDYFPEPVTVSWNSGALTSGVHTFPAVLQSSGLYSLSSVVTVPSSSLGTQTYICNVNHKPSNTKVDKKVEPKSCDKTHTCPPCPAPELLGGPSVFLFPPKPKDTLMISRTPEVTCVVVDVSHEDPEVKFNWYVDGVEVHNAKTKPREEQYNSTYRVVSVLTVLHQDWLNGKEYKCKVSNKALPAPIEKTISKAKGQPREPQVYTLPPSRDELNPPYLFSNQVSLTCLVKGFYPSDIAVEWESNGQPENNYKTTPPVLDSDGSFFLYSKLTVDYWRWLEGNVFSCSVMHEALHNHYTQKSLSLSPG
light: DIQMTQSPASLSASVGETVTITCRASGNIHNYLAWYQQKQGKSPQLLVYNAKTLADGVPSRFSGSGSGTQYSLKINSLQPEDFGSYYCQHFWSTPRTFGGGTKLEIKRTVAAPSVFIFPPSDEQLKSGTASVVCLLNNFYPREAKVQWKVDNALQSGNSQESVTEQDSKDSTYSLSSTLTLSKADYEKHKVYACEVTHQGLSSPVTKSFNRGEC
notes: Mock mAb^2, IgG1 without LALA; also called FS22-053-008/HeID1.3
Question: Which results are given for B1?
Answer: NF-kB signalling, HEK.FRT.luc.hCD137, +XL (EC50 nM) [1]: 26.3 nM; binding result (human CD40): no binding (tested: starting at 1 µM); binding result (human OX40): no binding (tested: starting at 1 µM); binding result (human GITR): no binding (tested: starting at 1 µM); Kd (hCD137-mFc-Avi): 4.2 nM; Human monomeric CD137 KD fold difference relative to human dimeric KD (hCD137-Avi-His): 170 fold; Kd (cCD137-mFc-Avi): 0.9 nM

B2: FS22-172-006/HelD1.3 (bispecific antibody, human IgG1, kappa)
heavy: B1 heavy with N358R, P359K, P360Y, L362P, F363P, S364Y, V367L, D417G, Y418A, W419D
light: B1 light
Question: B2 was tested. Which “NF-kB signalling, HEK.FRT.luc.hCD137, +XL (EC50 nM)” value (from here on “NF-kB signalling”) [1] did it give?
Answer: The value was 382 nM.

B3: FS22-172-002/HelD1.3 (bispecific antibody, human IgG1, kappa)
heavy: B1 heavy with N358P, P359F, P360Q, Y361M, L362P, F363P, S364Y, D417G, Y418A, W419D
light: B1 light
Question: How did the “NF-kB signalling” value [1] turn out when B3 was run?
Answer: The value was 124 nM.

B4: FS22-172-003/HelD1.3 (bispecific antibody, human IgG1, kappa)
heavy: B1 heavy with N358P, P359Y, P360I, Y361I, L362P, F363P, S364Y, D417G, Y418A, W419D
light: B1 light
notes: Mock mAb^2, IgG1 without LALA
Question: What does the source list for B4?
Answer: NF-kB signalling, HEK.FRT.luc.hCD137, +XL (EC50 nM) [1]: 32.6 nM; binding result (human CD40): no binding (tested: starting at 1 µM); binding result (human OX40): no binding (tested: starting at 1 µM); binding result (human GITR): no binding (tested: starting at 1 µM); Kd (hCD137-mFc-Avi): 1.5 nM; Human monomeric CD137 KD fold difference relative to human dimeric KD (hCD137-Avi-His): > 200 fold; Kd (cCD137-mFc-Avi): 1.3 nM

B5: FS22-172-004/HelD1.3 (bispecific antibody, human IgG1, kappa)
heavy: B1 heavy with P359Y, P360I, L362P, F363P, S364Y, D417G, Y418A, W419D
light: B1 light
notes: Mock mAb^2, IgG1 without LALA
Question: What does the source list for B5?
Answer: NF-kB signalling, HEK.FRT.luc.hCD137, +XL (EC50 nM) [1]: 124 nM; binding result (human CD40): no binding (tested: starting at 1 µM); binding result (human OX40): no binding (tested: starting at 1 µM); binding result (human GITR): no binding (tested: starting at 1 µM); Kd (hCD137-mFc-Avi): 4.3 nM; Human monomeric CD137 KD fold difference relative to human dimeric KD (hCD137-Avi-His): > 200 fold; Kd (cCD137-mFc-Avi): 3.5 nM

B6: FS22-053-012/HelD1.3 (bispecific antibody, human IgG1, kappa)
heavy: B1 heavy with Y418H, W419M
light: B1 light
notes: Mock mAb^2, IgG1 without LALA; also called FS22-053-012/HeID1.3
Question: For B6, which “NF-kB signalling” value [1] is on record?
Answer: The value was 119 nM.

Question: Does B6 bind (human CD40)?
Answer: Result: no binding (tested: starting at 1 µM)

Question: Does B6 bind (human OX40)?
Answer: Result: no binding (tested: starting at 1 µM)

Question: Does B6 bind (human GITR)?
Answer: Result: no binding (tested: starting at 1 µM)

B7: FS22-053-010/HelD1.3 (bispecific antibody, human IgG1, kappa)
heavy: B1 heavy with W419M, E423D
light: B1 light
notes: Mock mAb^2, IgG1 without LALA; also called FS22-053-010/HeID1.3
Question: For B7, which “NF-kB signalling” value [1] is on record?
Answer: The value was 47.5 nM.

Question: Does B7 bind (human CD40)?
Answer: Result: no binding (tested: starting at 1 µM)

Question: Does B7 bind (human OX40)?
Answer: Result: no binding (tested: starting at 1 µM)

Question: Does B7 bind (human GITR)?
Answer: Result: no binding (tested: starting at 1 µM)

B8: FS22-053-009/HelD1.3 (bispecific antibody, human IgG1, kappa)
heavy: B1 heavy with D417E, Y418H, W419T, E423D
light: B1 light
notes: Mock mAb^2, IgG1 without LALA; also called FS22-053-009/HeID1.3
Question: With B8 as the binder, how does the “NF-kB signalling” value [1] read?
Answer: The value was 64.6 nM.

Question: Does B8 bind (human CD40)?
Answer: Result: no binding (tested: starting at 1 µM)

Question: Does B8 bind (human OX40)?
Answer: Result: no binding (tested: starting at 1 µM)

Question: Does B8 bind (human GITR)?
Answer: Result: no binding (tested: starting at 1 µM)

B9: FS22-053-011/HelD1.3 (bispecific antibody, human IgG1, kappa)
heavy: B1 heavy with L422T, E423D
light: B1 light
notes: Mock mAb^2, IgG1 without LALA; also called FS22-053-011/HeID1.3
Question: B9 was tested. Which “NF-kB signalling” value [1] did it give?
Answer: The value was 32.8 nM.

Question: Does B9 bind (human CD40)?
Answer: Result: no binding (tested: starting at 1 µM)

Question: Does B9 bind (human OX40)?
Answer: Result: no binding (tested: starting at 1 µM)

Question: Does B9 bind (human GITR)?
Answer: Result: no binding (tested: starting at 1 µM)

Question: And the Kd (hCD137-mFc-Avi)?
Answer: The Kd was 5.5 nM.

Question: And the “Human monomeric CD137 KD fold difference relative to human dimeric KD” value (hCD137-Avi-His)?
Answer: Its value is over 200 fold.

Question: And the Kd (cCD137-mFc-Avi)?
Answer: The Kd was 1.3 nM.
